Biological target: Htz1(T46C)-2xFLAG (yeast H2A.Z with a cysteine probe) (yeast)
Assay: cross-linking; VivosX: disulfide cross-linking in living yeast cells with 180 uM 4-DPS for 20 min at 30 C; TCA fixation; non-reducing SDS-PAGE and anti-FLAG immunoblot, bands normalised to H4; WT cells (swc2 and swr1 deletion cells also tested, with fewer ZZ and AZ adducts)

Question: Which percent of bulk H2A.Z in the H2A.Z-to-H2A.Z cross-linked adduct (WT cells) does the source give for “Htz1(T46C)-2xFLAG (yeast H2A.Z with a cysteine probe) (natural protein)” here?
Answer: 12%

Question: How did the percent of bulk H2A.Z in the H2A-to-H2A.Z cross-linked adduct (WT cells) turn out when “2xV5-Hta1(N39C) (yeast H2A with a cysteine probe) (natural protein)” was run?
Answer: 57%
